Here are results for six molecules from patent publication US20090214603A1 (UNIVERSITY OF LOUISVILLE RESEARCH FOUNDATION, published 2009).

What all share (assay): cell-based or functional assay
The target of assay [1] is recombinant Mfa1 protein (rMfa1), full-length Mfa1 of P. gingivalis 33277 with a C-terminal penta-histidine tag (Porphyromonas gingivalis) (UniProt B2RHG1).
In assay [2] the target is minor fimbrial antigen Mfa1 of Porphyromonas gingivalis, on intact P. gingivalis ATCC 33277 cells (Porphyromonas gingivalis) (UniProt B2RHG1).
In assay [3] the target is T1, minor fimbrial antigen Mfa1 of Porphyromonas gingivalis, on intact P. gingivalis ATCC 33277 cells (Porphyromonas gingivalis, UniProt B2RHG1 50-563).
T1 sequence: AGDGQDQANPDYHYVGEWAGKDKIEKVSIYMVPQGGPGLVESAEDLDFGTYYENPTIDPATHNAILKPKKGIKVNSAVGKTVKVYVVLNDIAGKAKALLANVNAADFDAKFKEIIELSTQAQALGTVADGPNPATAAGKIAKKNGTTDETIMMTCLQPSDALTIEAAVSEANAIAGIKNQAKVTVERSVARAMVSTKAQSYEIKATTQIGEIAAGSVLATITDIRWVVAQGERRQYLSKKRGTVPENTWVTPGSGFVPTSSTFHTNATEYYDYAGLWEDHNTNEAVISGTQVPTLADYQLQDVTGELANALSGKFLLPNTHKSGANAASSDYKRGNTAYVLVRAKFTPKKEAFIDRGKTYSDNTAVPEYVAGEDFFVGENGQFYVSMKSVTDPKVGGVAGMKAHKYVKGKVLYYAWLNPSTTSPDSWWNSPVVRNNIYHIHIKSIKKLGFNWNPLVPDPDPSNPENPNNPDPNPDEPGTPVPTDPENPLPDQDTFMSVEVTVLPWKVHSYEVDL

recombinant Mfa1 protein (rMfa1), full-length Mfa1 of P. gingivalis 33277 with a C-terminal penta-histidine tag (Porphyromonas gingivalis), sequence (B2RHG1 20-563, tags left off): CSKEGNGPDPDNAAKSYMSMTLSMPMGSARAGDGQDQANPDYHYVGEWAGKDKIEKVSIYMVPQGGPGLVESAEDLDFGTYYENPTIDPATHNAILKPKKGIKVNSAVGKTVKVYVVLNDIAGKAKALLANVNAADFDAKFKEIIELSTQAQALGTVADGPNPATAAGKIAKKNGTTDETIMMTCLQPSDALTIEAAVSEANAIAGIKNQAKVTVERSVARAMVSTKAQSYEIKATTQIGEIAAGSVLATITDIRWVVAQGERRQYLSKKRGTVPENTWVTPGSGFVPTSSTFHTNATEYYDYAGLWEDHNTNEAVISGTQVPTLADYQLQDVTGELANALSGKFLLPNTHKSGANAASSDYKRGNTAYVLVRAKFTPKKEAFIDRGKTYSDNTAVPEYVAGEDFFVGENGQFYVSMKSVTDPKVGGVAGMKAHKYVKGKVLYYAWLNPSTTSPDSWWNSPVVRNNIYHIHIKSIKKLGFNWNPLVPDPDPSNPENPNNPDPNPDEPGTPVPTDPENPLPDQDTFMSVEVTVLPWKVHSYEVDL

On to “BAR peptide (SspB Adherence Region), synthetic peptide comprising residues 1167 to 1193 of the SspB (antigen I/II) protein of S. gordonii”, for which, in assay [1], the relative density (R.D.) of remaining BAR peptide after 5 minutes with P. gingivalis SMF1 and rMfa1 (relative density) stood at 47.3; the relative density (R.D.) of remaining BAR peptide after 30 minutes with P. gingivalis SMF1 and rMfa1 (relative density) came out at 8.2.
In assay [2], “BAR-II, derivative of the BAR peptide containing the Arg/Asn1182 and Ile/Val1185 substitutions” came in with an I50 of inhibition of P. gingivalis adherence and biofilm formation of 0.52 µM; a fold difference of I50 against BAR of 2.5 fold; an inhibition of adherence and formation of P. gingivalis microcolonies on the streptococcal substrate at 0.34 µM peptide of 25%; an inhibition of adherence and formation of P. gingivalis microcolonies on the streptococcal substrate at 0.85 µM peptide of 82%.
As for “BAR-III, cyclic conformationally constrained disulfide bridged BAR peptide with Cys substituted for Leu1177 and Leu1191”, in assay [2], the specific activity of biofilm inhibition against BAR (fold less than BAR) amounted to 13.
The molecule “BAR-X, BAR analog in which the internal variable residues in VXXLL were altered to Pro and Gly (VPGLL) (peptide)” showed an inhibition of biofilm formation at 3.38 µM peptide in assay [2] of 15%.
For “BAR-XI, BAR analog in which the positively charged Lys residues flanking VXXLL were altered to Asp (peptide)”, in assay [2], the inhibition of biofilm formation was determined as 40%.

B1: BAR peptide (SspB Adherence Region), synthetic peptide comprising residues 1167 to 1193 of the SspB (antigen I/II) protein of S. gordonii (peptide)
peptide: LEAAPKKVQDLLKKANITVKGAFQLFS
Turning to B1, in assay [3], the “% inhibition of microcolony formation relative to 0 µM, 0.169 µM BAR, with pepstatin A” value was determined as 19.9%; the “% inhibition of microcolony formation relative to 0 µM, 0.169 µM BAR, without pepstatin A” value was determined as 4.99%; the “% inhibition of microcolony formation relative to 0 µM, 0.338 µM BAR, with pepstatin A” value came out at 44.6%; the “% inhibition of microcolony formation relative to 0 µM, 0.338 µM BAR, without pepstatin A” value stood at 18.6%. For the same molecule, in assay [3], the “% inhibition of microcolony formation relative to 0 µM, 0.845 µM BAR, with pepstatin A” value was found to be 67.7%; the “% inhibition of microcolony formation relative to 0 µM, 0.845 µM BAR, without pepstatin A” value was determined as 42.5%; the “% inhibition of microcolony formation relative to 0 µM, 1.65 µM BAR, with pepstatin A” value came to 97.8%; the “% inhibition of microcolony formation relative to 0 µM, 1.65 µM BAR, without pepstatin A” value amounted to 93.4%.
